B1: Intercellular adhesion molecule 5 (Homo sapiens), Q9UMF0 (parent)
chain: MPGPSPGLRRALLGLWAALGLGLFGLSAVSQEPFWADLQPRVAFVERGGSLWLNCSTNCPRPERGGLETSLRRNGTQRGLRWLARQLVDIREPETQPVCFFRCARRTLQARGLIRTFQRPDRVELMPLPPWQPVGENFTLSCRVPGAGPRASLTLTLLRGAQELIRRSFAGEPPRARGAVLTATVLARREDHGANFSCRAELDLRPHGLGLFENSSAPRELRTFSLSPDAPRLAAPRLLEVGSERPVSCTLDGLFPASEARVYLALGDQNLSPDVTLEGDAFVATATATASAEQEGARQLVCNVTLGGENRETRENVTIYSFPAPLLTLSEPSVSEGQMVTVTCAAGAQALVTLEGVPAAVPGQPAQLQLNATENDDRRSFFCDATLDVDGETLIKNRSAELRVLYAPRLDDSDCPRSWTWPEGPEQTLRCEARGNPEPSVHCARSDGGAVLALGLLGPVTRALSGTYRCKAANDQGEAVKDVTLTVEYAPALDSVGCPERITWLEGTEASLSCVAHGVPPPDVICVRSGELGAVIEGLLRVAREHAGTYRCEATNPRGSAAKNVAVTVEYGPRFEEPSCPSNWTWVEGSGRLFSCEVDGKPQPSVKCVGSGGATEGVLLPLAPPDPSPRAPRIPRVLAPGIYVCNATNRHGSVAKTVVVSAESPPEMDESTCPSHQTWLEGAEASALACAARGRPSPGVRCSREGIPWPEQQRVSREDAGTYHCVATNAHGTDSRTVTVGVEYRPVVAELAASPPGGVRPGGNFTLTCRAEAWPPAQISWRAPPGALNIGLSSNNSTLSVAGAMGSHGGEYECAATNAHGRHARRITVRVAGPWLWVAVGGAAGGAALLAAGAGLAFYVQSTACKKGEYNVQEAESSGEAVCLNGAGGGAGGAAGAEGGPEAAGGAAESPAEGEVFAIQLTSA

Variants of B1 are the subject of this test. The conditions noted are these: with actn1_chick ACTN1, P05094.
Chain of actn1_chick ACTN1, P05094 (P05094 whole entry): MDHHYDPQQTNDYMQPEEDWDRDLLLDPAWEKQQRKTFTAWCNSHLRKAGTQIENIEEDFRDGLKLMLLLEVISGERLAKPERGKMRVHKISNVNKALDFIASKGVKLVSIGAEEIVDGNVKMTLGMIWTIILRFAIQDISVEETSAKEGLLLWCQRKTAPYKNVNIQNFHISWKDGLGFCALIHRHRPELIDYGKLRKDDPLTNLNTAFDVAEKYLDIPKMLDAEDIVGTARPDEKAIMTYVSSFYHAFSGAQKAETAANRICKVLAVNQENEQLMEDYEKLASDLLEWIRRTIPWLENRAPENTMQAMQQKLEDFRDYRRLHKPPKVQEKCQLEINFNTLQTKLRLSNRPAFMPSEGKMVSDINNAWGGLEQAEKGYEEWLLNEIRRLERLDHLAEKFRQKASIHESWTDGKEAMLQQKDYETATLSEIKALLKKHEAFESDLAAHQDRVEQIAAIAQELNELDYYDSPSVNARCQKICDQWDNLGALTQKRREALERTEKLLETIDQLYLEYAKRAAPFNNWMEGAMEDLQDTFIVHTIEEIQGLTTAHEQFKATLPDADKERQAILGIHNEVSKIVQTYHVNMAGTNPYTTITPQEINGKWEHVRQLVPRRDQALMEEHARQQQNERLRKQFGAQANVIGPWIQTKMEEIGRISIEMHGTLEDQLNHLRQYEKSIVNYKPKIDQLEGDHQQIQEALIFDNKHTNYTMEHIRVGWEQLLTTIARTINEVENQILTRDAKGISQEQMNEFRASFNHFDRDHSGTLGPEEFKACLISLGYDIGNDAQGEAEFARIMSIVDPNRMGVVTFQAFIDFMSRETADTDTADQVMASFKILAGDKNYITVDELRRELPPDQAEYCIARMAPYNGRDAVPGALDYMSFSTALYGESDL
As for K866A, the “effect of a mutation on the interaction” value was “decreasing interaction”.
Then K866R, with “decreasing interaction”.
As to K867R, the “effect of a mutation on the interaction” value is reported as “decreasing interaction”.
Take K867A: the “effect of a mutation on the interaction” value is given as “disrupting interaction”.
To K866A;K867A belongs “disrupting interaction”.

The values above are taken from IntAct's records for PubMed 16820411.
